Measured values published in the Immune Epitope Database (IEDB).

Experiments:
Assay in all cases: IEDB peptide-MHC binding, purified MHC/competitive/radioactivity; filed as Kd, often an IC50 or EC50 that approximates it; ≥ and ≤ were set here for values at or beyond the usual limits of such assays
Settings in all cases: source organism: Influenza A virus
HLA-A*29:02 = target: HLA-A*29:02
HLA-A*23:01 = target: HLA-A*23:01
HLA-A*24:02 = target: HLA-A*24:02
HLA-A*30:02 = target: HLA-A*30:02
HLA-A*11:01 = target: HLA-A*11:01
HLA-A*33:01 = target: HLA-A*33:01
HLA-A*03:01 = target: HLA-A*03:01
HLA-A*31:01 = target: HLA-A*31:01
HLA-A*68:01 = target: HLA-A*68:01
HLA-A*02:03 = target: HLA-A*02:03
HLA-A*02:02 = target: HLA-A*02:02
HLA-A*68:02 = target: HLA-A*68:02
HLA-A*02:01 = target: HLA-A*02:01
HLA-A*02:06 = target: HLA-A*02:06
HLA-B*51:01 = target: HLA-B*51:01
HLA-B*54:01 = target: HLA-B*54:01
HLA-B*35:01 = target: HLA-B*35:01
HLA-B*53:01 = target: HLA-B*53:01
HLA-B*40:02 = target: HLA-B*40:02
HLA-B*45:01 = target: HLA-B*45:01
HLA-B*18:01 = target: HLA-B*18:01
HLA-B*44:03 = target: HLA-B*44:03
HLA-B*44:02 = target: HLA-B*44:02
HLA-B*40:01 = target: HLA-B*40:01
HLA-A*01:01 = target: HLA-A*01:01

## FYIQMCTEL
HLA-A*29:02
  Kd: 1560 nM
HLA-A*23:01
  Kd: 8 nM
HLA-A*24:02
  Kd: 24 nM
HLA-A*30:02
  Kd: ≥ 10000 nM

## ASCMGLIYNR
HLA-A*11:01
  Kd: 32 nM
HLA-A*33:01
  Kd: 445 nM
HLA-A*03:01
  Kd: 816 nM
HLA-A*31:01
  Kd: 7 nM
HLA-A*68:01
  Kd: 391 nM

## VLRGFLILGK
HLA-A*11:01
  Kd: 460 nM
HLA-A*33:01
  Kd: ≥ 10000 nM
HLA-A*03:01
  Kd: 10 nM
HLA-A*31:01
  Kd: 85 nM
HLA-A*68:01
  Kd: 1160 nM

## FQVDCFLWHV
HLA-A*02:03
  Kd: 3 nM
HLA-A*02:02
  Kd: 4 nM
HLA-A*68:02
  Kd: 219 nM
HLA-A*02:01
  Kd: 4 nM
HLA-A*02:06
  Kd: ≤ 1 nM

## FYRYGFVANF
HLA-A*29:02
  Kd: 812 nM
HLA-A*23:01
  Kd: 13 nM
HLA-A*24:02
  Kd: 17 nM
HLA-A*30:02
  Kd: ≥ 10000 nM

## LPRRSGAAGA
HLA-B*51:01
  Kd: ≥ 10000 nM
HLA-B*54:01
  Kd: 47 nM
HLA-B*35:01
  Kd: ≥ 10000 nM
HLA-B*53:01
  Kd: ≥ 10000 nM

## KSCLPACVY
HLA-A*29:02
  Kd: ≥ 10000 nM
HLA-A*30:02
  Kd: 43 nM

## SFSFGGFTFK
HLA-A*33:01
  Kd: 85 nM

## SVQRNLPFER
HLA-A*11:01
  Kd: 411 nM
HLA-A*33:01
  Kd: 321 nM
HLA-A*03:01
  Kd: ≥ 10000 nM
HLA-A*31:01
  Kd: 104 nM
HLA-A*68:01
  Kd: 19 nM

## NMLSTVLGV
HLA-A*02:03
  Kd: 11 nM
HLA-A*02:02
  Kd: 5 nM
HLA-A*68:02
  Kd: 1060 nM
HLA-A*02:06
  Kd: 3 nM

## SEQAAEAMEV
HLA-B*40:02
  Kd: 85 nM
HLA-B*45:01
  Kd: 35 nM
HLA-B*18:01
  Kd: 1900 nM
HLA-B*44:03
  Kd: 7670 nM
HLA-B*44:02
  Kd: 2640 nM
HLA-B*40:01
  Kd: 2670 nM

## KFLPDLYDYK
HLA-A*11:01
  Kd: 22 nM
HLA-A*33:01
  Kd: ≥ 10000 nM
HLA-A*03:01
  Kd: 255 nM
HLA-A*31:01
  Kd: 2410 nM
HLA-A*68:01
  Kd: 507 nM

## YSHGTGTGY
HLA-A*29:02
  Kd: 486 nM
HLA-A*01:01
  Kd: 199 nM
HLA-A*30:02
  Kd: 131 nM

## GTFEFTSFFY
HLA-A*11:01
  Kd: ≤ 1 nM
HLA-A*33:01
  Kd: 5410 nM
HLA-A*03:01
  Kd: 16 nM
HLA-A*31:01
  Kd: 242 nM
HLA-A*68:01
  Kd: 100 nM

## SVQPTFSVQR
HLA-A*11:01
  Kd: 37 nM
HLA-A*33:01
  Kd: 181 nM
HLA-A*03:01
  Kd: ≥ 10000 nM
HLA-A*31:01
  Kd: 21 nM
HLA-A*68:01
  Kd: 84 nM

## CLPACVYGL
HLA-A*02:03
  Kd: 143 nM
HLA-A*02:02
  Kd: 4 nM
HLA-A*68:02
  Kd: 3770 nM
HLA-A*02:01
  Kd: 79 nM
HLA-A*02:06
  Kd: 95 nM

## QEIRTFSFQL
HLA-B*40:02
  Kd: 68 nM
HLA-B*45:01
  Kd: 380 nM
HLA-B*18:01
  Kd: 515 nM
HLA-B*44:03
  Kd: 431 nM
HLA-B*44:02
  Kd: 102 nM
HLA-B*40:01
  Kd: 135 nM

## RLFFKCIYRR
HLA-A*11:01
  Kd: 294 nM
HLA-A*33:01
  Kd: 238 nM
HLA-A*03:01
  Kd: 135 nM
HLA-A*31:01
  Kd: 5 nM
HLA-A*68:01
  Kd: 88 nM

## KLVGINMSKK
HLA-A*11:01
  Kd: 315 nM
HLA-A*33:01
  Kd: ≥ 10000 nM
HLA-A*03:01
  Kd: 14 nM
HLA-A*31:01
  Kd: 518 nM
HLA-A*68:01
  Kd: 1610 nM

## TEVETYVLSI
HLA-B*40:02
  Kd: 195 nM
HLA-B*45:01
  Kd: 504 nM
HLA-B*18:01
  Kd: 136 nM
HLA-B*44:03
  Kd: 247 nM
HLA-B*44:02
  Kd: 6880 nM
HLA-B*40:01
  Kd: 133 nM

## FQGRGVFEL
HLA-A*02:03
  Kd: 307 nM
HLA-A*02:02
  Kd: 7 nM
HLA-A*68:02
  Kd: ≥ 10000 nM
HLA-A*02:01
  Kd: 143 nM
HLA-A*02:06
  Kd: 7 nM

## GERQNATEI
HLA-B*40:02
  Kd: 53 nM
HLA-B*45:01
  Kd: 304 nM
HLA-B*18:01
  Kd: ≥ 10000 nM
HLA-B*44:03
  Kd: ≥ 10000 nM
HLA-B*44:02
  Kd: ≥ 10000 nM
HLA-B*40:01
  Kd: 199 nM
